Measured values published in patent US20120282285.

Key:
[1] = molecular target: mannose-binding lectin (MBL), P11226
[2] = molecular target: Ficolin-3, O75636
Sequence of Ficolin-3, O75636 (O75636 24-299): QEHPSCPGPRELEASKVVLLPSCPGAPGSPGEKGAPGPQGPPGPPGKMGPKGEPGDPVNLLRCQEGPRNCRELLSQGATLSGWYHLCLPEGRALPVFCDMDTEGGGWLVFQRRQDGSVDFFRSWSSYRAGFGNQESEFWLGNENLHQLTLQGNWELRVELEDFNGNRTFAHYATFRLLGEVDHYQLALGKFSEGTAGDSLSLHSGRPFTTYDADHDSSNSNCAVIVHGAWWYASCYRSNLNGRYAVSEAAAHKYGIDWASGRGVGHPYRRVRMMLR

Sequence of mannose-binding lectin (MBL), P11226 (P11226 21-248): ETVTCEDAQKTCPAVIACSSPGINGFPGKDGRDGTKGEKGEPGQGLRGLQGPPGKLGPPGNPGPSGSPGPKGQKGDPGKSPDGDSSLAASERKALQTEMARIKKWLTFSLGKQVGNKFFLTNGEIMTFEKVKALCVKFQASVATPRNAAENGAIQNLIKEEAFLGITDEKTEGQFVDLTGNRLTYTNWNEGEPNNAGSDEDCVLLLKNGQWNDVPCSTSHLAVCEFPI

B1: MBL-Associated Serine Protease-1 (MASP-1) (protein)
chain: HTVELNNMFGQIQSPGYPDSYPSDSEVTWNITVPDGFRIKLYFMHFNLESSYLCEYDYVKVETEDQVLATFCGRETTDTEQTPGQEVVLSPGSFMSITFRSDFSNEERFTGFDAHYMAVDVDECKEREDEELSCDHYCHNYIGGYYCSCRFGYILHTDNRTCRVECSDNLFTQRTGVITSPDFPNPYPKSSECLYTIELEEGFMVNLQFEDIFDIEDHPEVPCPYDYIKIKVGPKVLGPFCGEKAPEPISTQSHSVLILFHSDNSGENRGWRLSYRAAGNECPELQPPVHGKIEPSQAKYFFKDQVLVSCDTGYKVLKDNVEMDTFQIECLKDGTWSNKIPTCKIVDCRAPGELEHGLITFSTRNNLTTYKSEIKYSCQEPYYKMLNNNTGIYTCSAQGVWMNKVLGRSLPTCLPVCGLPKFSRKLMARIFNGRPAQKGTTPWIAMLSHLNGQPFCGGSLLGSSWIVTAAHCLHQSLDPEDPTLRDSDLLSPSDFKIILGKHWRLRSDENEQHLGVKHTTLHPQYDPNTFENDVALVELLESPVLNAFVMPICLPEGPQQEGAMVIVSGWGKQFLQRFPETLMEIEIPIVDHSTCQKAYAPLKKKVTRDMICAGEKEGGKDACAGDSGGPMVTLNRERGQWYLVGTVSWGDDCGKKDRYGVYSYIHHNKDWIQRVTGVRN
complement activation (C3 and C4) [1]: MASP-1 were able to activate both the C3 and C4 complement proteins

B2: MBL-Associated Serine Protease-2 (MASP-2) (protein)
chain: TPLGPKWPEPVFGRLASPGFPGEYANDQERRWTLTAPPGYRLRLYFTHFDLELSHLCEYDFVKLSSGAKVLATLCGQESTDTERAPGKDTFYSLGSSLDITFRSDYSNEKPFTGFEAFYAAEDIDECQVAPGEAPTCDHHCHNHLGGFYCSCRAGYVLHRNKRTCSALCSGQVFTQRSGELSSPEYPRPYPKLSSCTYSISLEEGFSVILDFVESFDVETHPETLCPYDFLKIQTDREEHGPFCGKTLPHRIETKSNTVTITFVTDESGDHTGWKIHYTSTAQPCPYPMAPPNGHVSPVQAKYILKDSFSIFCETGYELLQGHLPLKSFTAVCQKDGSWDRPMPACSIVDCGPPDDLPSGRVEYITGPGVTTYKAVIQYSCEETFYTMKVNDGKYVCEADGFWTSSKGEKSLPVCEPVCGLSARTTGGRIYGGQKAKPGDFPWQVLILGGTTAAGALLYDNWVLTAAHAVYEQKHDASALDIRMGTLKRLSPHYTQAWSEAVFIHEGYTHDAGFDNDIALIKLNNKVVINSNITPICLPRKEAESFMRTDDIGTASGWGLTQRGFLARNLMYVDIPIVDHQKCTAAYEKPPYPRGSVTANMLCAGLESGGKDSCRGDSGGALVFLDSETERWFVGGIVSWGSMNCGEAGQYGVYTKVINYIPWIENIISDF
C4 deposition (OD490-650nm), mannan/rMBL with MBL deficient serum [1]: Application of rMASP-2 resulted in a strong positive dose dependent enhancement of the C4 deposition via both the Ficolin-3 and MBL activation pathways (FIGS. 25B and 25E) | complement activation (C3 and C4) [1]: MASP-2 were able to strongly activate both the C3 and C4 complement proteins | C4 deposition (OD490-650nm), AcBSA/rFicolin-3 with Ficolin-3 deficient serum [2]: Application of rMASP-2 resulted in a strong positive dose dependent enhancement of the C4 deposition via both the Ficolin-3 and MBL activation pathways (FIGS. 25B and 25E)
